Results taken from article PMC11348317 (Proceedings of the National Academy of Sciences of the …, 2024).

Target: the molecule itself
Experiment: FRET or BRET

B1: Escherichia coli transthyretin-related protein (EcTRP), single Cys variant Asn94Cys with N-terminal His5-tag, fluorophore-labelled (enzyme, UniProt P76341 24-137, looked up)
chain: AQQNILSVHILNQQTGKPAADVTVTLEKKADNGWLQLNTAKTDKDGRIKALWPEQTATTGDYRVVFKTGDYFKKQNLESFFPEIPVEFHINKVCEHYHVPLLLSQYGYSTYRGS
modifications: Cys94 labelled with DyLight 550 maleimide (FRET donor) or Alexa 647 maleimide (FRET acceptor)
B1 was tested, and the “half-life of subunit exchange” value was greater than 30 h.
